Results as given in patent US20250019680.

Tests used:
[1] = system: dRBD #3L (LwaCas13a with hnRNP A1 RRM2 98-196 inserted between N415 and N416, catalytically inactive HEPN2) R1046A/H1051A (LwaCas13a numbering) (Leptotrichia wadei / Homo sapiens); experiment: EMSA
[2] = system: dRBD #4L (LwaCas13a with hnRNP C RRM 2-106 inserted between N415 and N416, catalytically inactive HEPN2) R1046A/H1051A (LwaCas13a numbering) (Leptotrichia wadei / Homo sapiens); experiment: EMSA
[3] = system: T1, RBD #6L LwaCas13a (ADAR1 126-202 in Loop 1) (Leptotrichia wadei / Homo sapiens); experiment: cleavage_in_vitro; conditions: collateral cleavage of RNaseAlert
T1 sequence: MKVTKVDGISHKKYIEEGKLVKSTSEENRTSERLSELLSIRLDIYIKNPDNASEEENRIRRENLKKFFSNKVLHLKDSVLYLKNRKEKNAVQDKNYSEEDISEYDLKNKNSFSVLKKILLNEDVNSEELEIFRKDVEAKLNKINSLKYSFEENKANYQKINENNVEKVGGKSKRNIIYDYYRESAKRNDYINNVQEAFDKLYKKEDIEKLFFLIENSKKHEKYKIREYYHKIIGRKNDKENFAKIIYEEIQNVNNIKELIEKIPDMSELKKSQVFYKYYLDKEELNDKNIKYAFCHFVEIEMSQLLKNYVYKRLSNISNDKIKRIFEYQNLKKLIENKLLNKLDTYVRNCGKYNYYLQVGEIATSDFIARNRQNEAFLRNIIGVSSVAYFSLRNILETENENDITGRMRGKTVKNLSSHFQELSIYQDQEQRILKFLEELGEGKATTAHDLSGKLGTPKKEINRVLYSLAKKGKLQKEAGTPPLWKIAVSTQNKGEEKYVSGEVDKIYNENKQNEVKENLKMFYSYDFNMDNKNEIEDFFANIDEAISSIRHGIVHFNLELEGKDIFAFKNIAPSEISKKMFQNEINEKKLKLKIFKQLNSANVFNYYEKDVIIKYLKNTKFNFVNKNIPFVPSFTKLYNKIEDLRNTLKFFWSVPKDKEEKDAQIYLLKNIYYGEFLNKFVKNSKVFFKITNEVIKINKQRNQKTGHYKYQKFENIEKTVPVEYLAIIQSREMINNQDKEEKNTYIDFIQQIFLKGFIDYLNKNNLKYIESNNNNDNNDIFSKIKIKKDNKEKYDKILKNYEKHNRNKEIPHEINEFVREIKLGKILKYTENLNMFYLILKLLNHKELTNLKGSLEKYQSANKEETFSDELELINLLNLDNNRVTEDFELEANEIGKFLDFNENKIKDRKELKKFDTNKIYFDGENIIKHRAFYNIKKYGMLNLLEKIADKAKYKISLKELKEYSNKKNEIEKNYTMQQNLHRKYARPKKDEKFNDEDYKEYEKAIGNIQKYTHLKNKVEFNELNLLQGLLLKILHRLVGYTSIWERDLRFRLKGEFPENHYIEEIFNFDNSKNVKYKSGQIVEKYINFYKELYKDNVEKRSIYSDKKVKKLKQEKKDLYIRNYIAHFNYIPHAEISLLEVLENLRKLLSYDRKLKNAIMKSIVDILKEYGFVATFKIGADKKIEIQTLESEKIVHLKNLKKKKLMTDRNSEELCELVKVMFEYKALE

[4] = system: RBD #2L LwaCas13a (hnRNP A1 1-104 in Loop 1) (Leptotrichia wadei / Homo sapiens); experiment: cleavage_in_vitro; conditions: collateral cleavage of RNaseAlert
[5] = system: RBD #3L LwaCas13a (Leptotrichia wadei / Homo sapiens); experiment: cleavage_in_vitro; conditions: collateral cleavage of RNaseAlert
[6] = system: RBD #4L LwaCas13a (Leptotrichia wadei / Homo sapiens); experiment: cleavage_in_vitro; conditions: collateral cleavage of RNaseAlert
[7] = crRNA complex, 50 mM Tris pH 8.0, 60 mM NaCl, 5 mM MgCl2, 37 C
[8] = crRNA complex, 5 mM MgCl2, 37 C
[9] = collateral reporter binding by cr1/T1-bound complex, pH 7.5, 5 mM MgCl2, 0.01% Triton X-100

For “GACUACCCCAAAAACGAAGGGGACUAAAACAAUCUGAGGGUCCACCAAACGUAAUGCG / ACCCCGCAUUACGUUUGGUGGACCCUCAGAUUCAAC [cr1_N crRNA ; T26_N_2 target (36 nt)]”, the Kd [1, 7] was 23 nM and the Kd [2, 7] was 18 nM.
“GACUACCCCAAAAACGAAGGGGACUAAAACAAUCUGAGGGUCCACCAAACGUAAUGCG / GUCUGAUAAUGGACCCCAAAAUCAGCGAAAUGCACCCCGCAUUACGUUUGGUGGACCCUCAGAUUCAACUGGCAGUAACCAGAAUGGAGAACGCAGUGGGGCGCG [cr1_N crRNA ; T1_N target (105 nt)]” showed a Kd [1, 8] of 12 nM and a Kd [2, 8] of 11 nM.
“GACUACCCCAAAAACGAAGGGGACUAAAACUCACUCAAUACUUGAGCACACUCAUUAG / GUGAUAGAGCCAUGCCUAACAUGCUUAGAAUUAUGGCCUCACUUGUUCUUGCUCGCAAACAUACAACGUGUUGUAGCUUGUCACACCGUUUCUAUAGAUUAGCUAAUGAGUGUGCUCAAGUAUUGAGUGAAAUGGUCAUGUGUGGCGGUUCACUAUAUGUUAAACCAGGUGGAACCUCAUCAGGAGAUGCCACAACUGCUUAUGCUAAUAGUGUUUUUAACAUUUGU [cr2_RdRp crRNA ; T2_RdRp target]” gave a binding signal (% higher than WT) [3] of 171, a binding signal (% higher than WT) [4] of 164 and a binding signal (% higher than WT) [5] of 264. For the same sequence, the binding signal (% higher than WT) [6] was 241.
For UUUUUUUUUUUUUUUUUUUU [U20 reporter], the Kd [1, 9] was 230 nM and the Kd [2, 9] was 150 nM.
